In paper PMC7884711, “Identification of efficient prokaryotic cell-penetrating peptides with applications in bacterial biotechnology” (Communications Biology, 2021):
Like-named read-outs stand apart in the source and are kept apart here. Where no end group is shown, it is not given here.

Legend:
Type in all cases: cell-based, Escherichia coli
E. coli DH5α cells [1] = assay: Inhibition of bacterial cell growth by CPPs (Max OD600 relative to control); conditions: for Growth rate (%): E. coli growth with CPP, relative to control; for Max OD (%) (Figure 3f): E. coli DH5α diluted 1/1000 in LB, 5 μg TAMRA-CPP (0.1 μg/μL), OD600 monitored 18 h, max OD of treated cells / max OD of control cells; for Max OD (%): library CPPs, E. coli growth to stationary phase, relative to non-CPP-treated control, mean of n = 3
Description: E. coli DH5α cells were grown until OD600 = 1 at 37 °C with shaking at 200 rpm. […] Then, cell growth (OD600) was monitored for 18 h by using the Synergy^TM H1 hybrid multi-mode microplate reader (BioTek, Vermont, USA). As a control, we used E. coli cells that were not treated with CPPs.

E. coli DH5α cells [2] = assay: Penetration efficiency of TAMRA-labeled CPPs, electroporation-based method, flow cytometry; conditions: for Cell penetration efficiency (TAMRA fluorescence), Electrooration - Tris buffer / Cell penetration efficiency (TAMRA fluorescence), Electrooration - DW: electrocompetent E. coli DH5α, 5 μg TAMRA-CPP, electroporation 1.8 kV; for Cell penetration efficiency (TAMRA fluorescence), Electrooration - Tris buffer: 20 mM Tris-HCl pH 7.5, 1 h; for Cell penetration efficiency (TAMRA fluorescence), Electrooration - DW: distilled water, 1 h; for Penetration efficiency (TAMRA fluorescence in E. coli): library CPPs, electroporation, Tris buffer pH 7.5, 1 h, mean of n = 3–5
Excerpt: (§1) (Fig. 2a). […] First, we prepared electrocompetent and chemically competent cells.

E. coli DH5α cells [3] = assay: Penetration efficiency of TAMRA-labeled CPPs, chemical (CaCl2) treatment method, flow cytometry; conditions: for Cell penetration efficiency (TAMRA fluorescence), Chemical (CaCl2) method - Tris buffer / Cell penetration efficiency (TAMRA fluorescence), Chemical (CaCl2) method - DW: 50 mM CaCl2-treated E. coli DH5α, 5 μg TAMRA-CPP; for Cell penetration efficiency (TAMRA fluorescence), Chemical (CaCl2) method - Tris buffer: 20 mM Tris-Cl pH 7.5, 1 h; for Cell penetration efficiency (TAMRA fluorescence), Chemical (CaCl2) method - DW: 5 × 10^7 cells/50 μL, distilled water, 1 h; for Penetration efficiency (TAMRA FI): TAMRA fluorescence intensity in E. coli, library screen of 98 CPPs
Excerpt: as §1

[4] = class (Cytotoxic / Safe), cutoff of 50%

Substance | Growth rate (%) (E. coli DH5α cells [1]) | Max OD (%) (Figure 3f) (E. coli DH5α cells [1]; replicate 1) | Max OD (%) (Figure 3f) (E. coli DH5α cells [1]; replicate 2) | Max OD (%) (Figure 3f) (E. coli DH5α cells [1]; replicate 3) | Anti-bacterial activity (E. coli DH5α cells [1]; [4]) | Max OD (%) (E. coli DH5α cells [1]) | Penetration efficiency (TAMRA fluorescence in E. coli) (E. coli DH5α cells [2]) | other results
Penetratin (RQIKIWFPNRRMKWKK; also: TAMRA label, site not given here) [CPP 17, TAMRA-labeled CPP of the 98-CPP library, one of five used to evaluate delivery methods] | 56.8825% |  |  |  |  |  |  | Anti-bacterial activity (E. coli DH5α cells [1]): Safe; Cell penetration efficiency (TAMRA fluorescence), Electrooration - Tris buffer (E. coli DH5α cells [2]; replicate 1): 794.592 A.U.; Cell penetration efficiency (TAMRA fluorescence), Electrooration - Tris buffer (E. coli DH5α cells [2]; replicate 2): 585.819 A.U.; Cell penetration efficiency (TAMRA fluorescence), Electrooration - Tris buffer (E. coli DH5α cells [2]; replicate 3): 1028.54 A.U.; Cell penetration efficiency (TAMRA fluorescence), Electrooration - Tris buffer (E. coli DH5α cells [2]; replicate 4): 181.291 A.U.; Cell penetration efficiency (TAMRA fluorescence), Electrooration - DW (E. coli DH5α cells [2]; replicate 1): 634.038 A.U.; Cell penetration efficiency (TAMRA fluorescence), Electrooration - DW (E. coli DH5α cells [2]; replicate 2): 587.6 A.U.; Cell penetration efficiency (TAMRA fluorescence), Electrooration - DW (E. coli DH5α cells [2]; replicate 3): 471.96 A.U.; Cell penetration efficiency (TAMRA fluorescence), Chemical (CaCl2) method - Tris buffer (E. coli DH5α cells [3]; replicate 1): 29.4497 A.U.; Cell penetration efficiency (TAMRA fluorescence), Chemical (CaCl2) method - Tris buffer (E. coli DH5α cells [3]; replicate 2): 24.3955 A.U.; Cell penetration efficiency (TAMRA fluorescence), Chemical (CaCl2) method - Tris buffer (E. coli DH5α cells [3]; replicate 3): 28.6202 A.U.; Cell penetration efficiency (TAMRA fluorescence), Chemical (CaCl2) method - DW (E. coli DH5α cells [3]; replicate 1): 134.244 A.U.; Cell penetration efficiency (TAMRA fluorescence), Chemical (CaCl2) method - DW (E. coli DH5α cells [3]; replicate 2): 173.67 A.U.; Cell penetration efficiency (TAMRA fluorescence), Chemical (CaCl2) method - DW (E. coli DH5α cells [3]; replicate 3): 170.238 A.U.; Penetration efficiency (TAMRA FI) (E. coli DH5α cells [3]): 647.56
Tat (GRKKRRQRRRPPQRKC; also: TAMRA label, site not given here) [CPP 67, TAMRA-labeled CPP of the 98-CPP library] | 58.7683% | 60.9603% | 54.071% | 61.2735% | Safe | 58.8% | 2821.8 A.U. | 
rrrrrrrrrcqcrrkn [CPP 80] | 60.2773% | 65.3033% | 60% | 55.5286% | Safe |  |  | Penetration efficiency (TAMRA FI) (E. coli DH5α cells [3]): 1432.29
TatsMTS (TMG) (GRKKRRQRRRMVSAL; also: TAMRA label, site not given here) [CPP 71, TAMRA-labeled CPP of the 98-CPP library] | 80.7585% | 73.904% | 87.9958% | 80.3758% | Safe | 80.8% | 3266.3 A.U. | 
Tat48-57 (GRKKRRQRRR; also: TAMRA label, site not given here) [CPP 70, TAMRA-labeled CPP of the 98-CPP library] | 80.8281% | 81.1065% | 82.6722% | 78.7056% | Safe | 80.8% | 4043.3 A.U. | 
Tat49-57 (RKKRRQRRR; also: TAMRA label, site not given here) [CPP 45, TAMRA-labeled CPP of the 98-CPP library] | 69.5318% | 75.4515% | 62.3077% | 70.8361% | Safe | 69.5% | 2837.5 A.U. | 
CTP (GGRRARRRRRR; also: TAMRA label, site not given here) [CPP 96, TAMRA-labeled CPP of the 98-CPP library] | 85.4082% | 80.7143% | 88.7755% | 86.7347% | Safe | 85.4% | 3688.0 A.U. | 
